# Measured values reported in US20140087995A1 (published 2014).
# Numbered stars: 1 amine (or outer) side, 2 acyl side, 3 side chain; on linkers, the order of the positions; unused ones are H or OH. Bridge positions count the residues as written; N and C are the ends. Side chains are listed from the residue outwards. Ends that are not written are not given here. * marks the point of attachment. C20 diacid = O=C(O)CCCCCCCCCCCCCCCCCCC(=O)*; γGlu = O=C(O)[C@H](CCC(=O)[*:2])N[*:1]; AEEA = NCCOCCOCC(=O)O
# T1: human amylin 3(a) receptor (human calcitonin receptor co-expressed with RAMP-3) (human, UniProt P30988 25-474; O60896 24-148, limits assumed)
# T1 sequence (looked up) 1: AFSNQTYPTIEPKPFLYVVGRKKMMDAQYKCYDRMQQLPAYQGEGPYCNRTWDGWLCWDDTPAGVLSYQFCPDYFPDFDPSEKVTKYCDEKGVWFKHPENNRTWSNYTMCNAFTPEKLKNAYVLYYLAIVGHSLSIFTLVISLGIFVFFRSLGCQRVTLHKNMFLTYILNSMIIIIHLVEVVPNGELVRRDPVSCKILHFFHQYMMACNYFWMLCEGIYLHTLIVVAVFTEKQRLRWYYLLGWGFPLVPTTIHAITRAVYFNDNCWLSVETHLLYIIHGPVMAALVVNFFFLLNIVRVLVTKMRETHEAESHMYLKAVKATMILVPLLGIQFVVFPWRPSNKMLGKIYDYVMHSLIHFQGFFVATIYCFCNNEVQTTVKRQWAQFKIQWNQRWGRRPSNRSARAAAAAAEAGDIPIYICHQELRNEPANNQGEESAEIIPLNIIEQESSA
# T1 sequence (looked up) 2: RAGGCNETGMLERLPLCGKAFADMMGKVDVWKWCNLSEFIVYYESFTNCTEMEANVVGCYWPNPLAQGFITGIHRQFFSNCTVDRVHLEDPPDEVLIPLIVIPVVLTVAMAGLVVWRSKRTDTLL
# Target: T1, human amylin 3(a) receptor (human …)
# Assay: cell-based or functional assay
Binder,Ratio hCT/hAmylin funct. (hCTR EC50 over hAmylin-R EC50),hAmylin-R funct. EC50 (pM)
"K([AEEA-γGlu-C20 diacid])CNTATCATQRLANFLRHSSPNFGAIPSSTNVGSETY-NH2 (disulfide 2-7; N-terminus assumed; SMILES CC[C@H](C)[C@H](NC(=O)[C@H](C)NC(=O)CNC(=O)[C@H](Cc1ccccc1)NC(=O)[C@H](CC(N)=O)NC(=O)[C@@H]1CCCN1C(=O)[C@H](CO)NC(=O)[C@H](CO)NC(=O)[C@H](Cc1c[nH]cn1)NC(=O)[C@H](CCCNC(=N)N)NC(=O)[C@H](CC(C)C)NC(=O)[C@H](Cc1ccccc1)NC(=O)[C@H](CC(N)=O)NC(=O)[C@H](C)NC(=O)[C@H](CC(C)C)NC(=O)[C@H](CCCNC(=N)N)NC(=O)[C@H](CCC(N)=O)NC(=O)[C@@H](NC(=O)[C@H](C)NC(=O)[C@@H]1CSSC[C@H](NC(=O)[C@@H](N)CCCCNC(=O)COCCOCCNC(=O)CC[C@H](NC(=O)CCCCCCCCCCCCCCCCCCC(=O)O)C(=O)O)C(=O)N[C@@H](CC(N)=O)C(=O)N[C@@H]([C@@H](C)O)C(=O)N[C@@H](C)C(=O)N[C@@H]([C@@H](C)O)C(=O)N1)[C@@H](C)O)C(=O)N1CCC[C@H]1C(=O)N[C@@H](CO)C(=O)N[C@@H](CO)C(=O)N[C@H](C(=O)N[C@@H](CC(N)=O)C(=O)N[C@H](C(=O)NCC(=O)N[C@@H](CO)C(=O)N[C@@H](CCC(=O)O)C(=O)N[C@H](C(=O)N[C@@H](Cc1ccc(O)cc1)C(N)=O)[C@@H](C)O)C(C)C)[C@@H](C)O, also called compound 26)",29.9,212
"K([AEEA-γGlu-C20 diacid])CNTATCATQRLANFLRHSSPNFGAIPSSTNVGHNTY-NH2 (disulfide 2-7; N-terminus assumed; SMILES CC[C@H](C)[C@H](NC(=O)[C@H](C)NC(=O)CNC(=O)[C@H](Cc1ccccc1)NC(=O)[C@H](CC(N)=O)NC(=O)[C@@H]1CCCN1C(=O)[C@H](CO)NC(=O)[C@H](CO)NC(=O)[C@H](Cc1c[nH]cn1)NC(=O)[C@H](CCCNC(=N)N)NC(=O)[C@H](CC(C)C)NC(=O)[C@H](Cc1ccccc1)NC(=O)[C@H](CC(N)=O)NC(=O)[C@H](C)NC(=O)[C@H](CC(C)C)NC(=O)[C@H](CCCNC(=N)N)NC(=O)[C@H](CCC(N)=O)NC(=O)[C@@H](NC(=O)[C@H](C)NC(=O)[C@@H]1CSSC[C@H](NC(=O)[C@@H](N)CCCCNC(=O)COCCOCCNC(=O)CC[C@H](NC(=O)CCCCCCCCCCCCCCCCCCC(=O)O)C(=O)O)C(=O)N[C@@H](CC(N)=O)C(=O)N[C@@H]([C@@H](C)O)C(=O)N[C@@H](C)C(=O)N[C@@H]([C@@H](C)O)C(=O)N1)[C@@H](C)O)C(=O)N1CCC[C@H]1C(=O)N[C@@H](CO)C(=O)N[C@@H](CO)C(=O)N[C@H](C(=O)N[C@@H](CC(N)=O)C(=O)N[C@H](C(=O)NCC(=O)N[C@@H](Cc1c[nH]cn1)C(=O)N[C@@H](CC(N)=O)C(=O)N[C@H](C(=O)N[C@@H](Cc1ccc(O)cc1)C(N)=O)[C@@H](C)O)C(C)C)[C@@H](C)O, also called compound 76)",24.8,297
"K([AEEA-γGlu-C20 diacid])CNTATCATQRLANFLRHSSPNFGAIPPSTNVGPNTY-NH2 (disulfide 2-7; N-terminus assumed; SMILES CC[C@H](C)[C@H](NC(=O)[C@H](C)NC(=O)CNC(=O)[C@H](Cc1ccccc1)NC(=O)[C@H](CC(N)=O)NC(=O)[C@@H]1CCCN1C(=O)[C@H](CO)NC(=O)[C@H](CO)NC(=O)[C@H](Cc1c[nH]cn1)NC(=O)[C@H](CCCNC(=N)N)NC(=O)[C@H](CC(C)C)NC(=O)[C@H](Cc1ccccc1)NC(=O)[C@H](CC(N)=O)NC(=O)[C@H](C)NC(=O)[C@H](CC(C)C)NC(=O)[C@H](CCCNC(=N)N)NC(=O)[C@H](CCC(N)=O)NC(=O)[C@@H](NC(=O)[C@H](C)NC(=O)[C@@H]1CSSC[C@H](NC(=O)[C@@H](N)CCCCNC(=O)COCCOCCNC(=O)CC[C@H](NC(=O)CCCCCCCCCCCCCCCCCCC(=O)O)C(=O)O)C(=O)N[C@@H](CC(N)=O)C(=O)N[C@@H]([C@@H](C)O)C(=O)N[C@@H](C)C(=O)N[C@@H]([C@@H](C)O)C(=O)N1)[C@@H](C)O)C(=O)N1CCC[C@H]1C(=O)N1CCC[C@H]1C(=O)N[C@@H](CO)C(=O)N[C@H](C(=O)N[C@@H](CC(N)=O)C(=O)N[C@H](C(=O)NCC(=O)N1CCC[C@H]1C(=O)N[C@@H](CC(N)=O)C(=O)N[C@H](C(=O)N[C@@H](Cc1ccc(O)cc1)C(N)=O)[C@@H](C)O)C(C)C)[C@@H](C)O, also called compound 55)",10.8,68

# Further lines, results first:
Ratio hCT/hAmylin funct. (hCTR EC50 over hAmylin-R EC50),hAmylin-R funct. EC50 (pM),Binder
22.5,106,"K([AEEA-γGlu-C20 diacid])CNTATCATQRLANFLRHSSPNFGAIPSSTPVGSNTY-NH2 (disulfide 2-7; N-terminus assumed; SMILES CC[C@H](C)[C@H](NC(=O)[C@H](C)NC(=O)CNC(=O)[C@H](Cc1ccccc1)NC(=O)[C@H](CC(N)=O)NC(=O)[C@@H]1CCCN1C(=O)[C@H](CO)NC(=O)[C@H](CO)NC(=O)[C@H](Cc1c[nH]cn1)NC(=O)[C@H](CCCNC(=N)N)NC(=O)[C@H](CC(C)C)NC(=O)[C@H](Cc1ccccc1)NC(=O)[C@H](CC(N)=O)NC(=O)[C@H](C)NC(=O)[C@H](CC(C)C)NC(=O)[C@H](CCCNC(=N)N)NC(=O)[C@H](CCC(N)=O)NC(=O)[C@@H](NC(=O)[C@H](C)NC(=O)[C@@H]1CSSC[C@H](NC(=O)[C@@H](N)CCCCNC(=O)COCCOCCNC(=O)CC[C@H](NC(=O)CCCCCCCCCCCCCCCCCCC(=O)O)C(=O)O)C(=O)N[C@@H](CC(N)=O)C(=O)N[C@@H]([C@@H](C)O)C(=O)N[C@@H](C)C(=O)N[C@@H]([C@@H](C)O)C(=O)N1)[C@@H](C)O)C(=O)N1CCC[C@H]1C(=O)N[C@@H](CO)C(=O)N[C@@H](CO)C(=O)N[C@H](C(=O)N1CCC[C@H]1C(=O)N[C@H](C(=O)NCC(=O)N[C@@H](CO)C(=O)N[C@@H](CC(N)=O)C(=O)N[C@H](C(=O)N[C@@H](Cc1ccc(O)cc1)C(N)=O)[C@@H](C)O)C(C)C)[C@@H](C)O, also called compound 49)"
35,89,"K([AEEA-γGlu-C20 diacid])CNTATCATQRLANFLRHSSPNFGAIPSSTPVGSHTY-NH2 (disulfide 2-7; N-terminus assumed; SMILES CC[C@H](C)[C@H](NC(=O)[C@H](C)NC(=O)CNC(=O)[C@H](Cc1ccccc1)NC(=O)[C@H](CC(N)=O)NC(=O)[C@@H]1CCCN1C(=O)[C@H](CO)NC(=O)[C@H](CO)NC(=O)[C@H](Cc1c[nH]cn1)NC(=O)[C@H](CCCNC(=N)N)NC(=O)[C@H](CC(C)C)NC(=O)[C@H](Cc1ccccc1)NC(=O)[C@H](CC(N)=O)NC(=O)[C@H](C)NC(=O)[C@H](CC(C)C)NC(=O)[C@H](CCCNC(=N)N)NC(=O)[C@H](CCC(N)=O)NC(=O)[C@@H](NC(=O)[C@H](C)NC(=O)[C@@H]1CSSC[C@H](NC(=O)[C@@H](N)CCCCNC(=O)COCCOCCNC(=O)CC[C@H](NC(=O)CCCCCCCCCCCCCCCCCCC(=O)O)C(=O)O)C(=O)N[C@@H](CC(N)=O)C(=O)N[C@@H]([C@@H](C)O)C(=O)N[C@@H](C)C(=O)N[C@@H]([C@@H](C)O)C(=O)N1)[C@@H](C)O)C(=O)N1CCC[C@H]1C(=O)N[C@@H](CO)C(=O)N[C@@H](CO)C(=O)N[C@H](C(=O)N1CCC[C@H]1C(=O)N[C@H](C(=O)NCC(=O)N[C@@H](CO)C(=O)N[C@@H](Cc1c[nH]cn1)C(=O)N[C@H](C(=O)N[C@@H](Cc1ccc(O)cc1)C(N)=O)[C@@H](C)O)C(C)C)[C@@H](C)O, also called compound 57)"
